# Biological target: proMMP-9 (UniProt P14780)
# Experiment: cell-based or functional assay
# Sequence of proMMP-9 (P14780 20-707 limits assumed): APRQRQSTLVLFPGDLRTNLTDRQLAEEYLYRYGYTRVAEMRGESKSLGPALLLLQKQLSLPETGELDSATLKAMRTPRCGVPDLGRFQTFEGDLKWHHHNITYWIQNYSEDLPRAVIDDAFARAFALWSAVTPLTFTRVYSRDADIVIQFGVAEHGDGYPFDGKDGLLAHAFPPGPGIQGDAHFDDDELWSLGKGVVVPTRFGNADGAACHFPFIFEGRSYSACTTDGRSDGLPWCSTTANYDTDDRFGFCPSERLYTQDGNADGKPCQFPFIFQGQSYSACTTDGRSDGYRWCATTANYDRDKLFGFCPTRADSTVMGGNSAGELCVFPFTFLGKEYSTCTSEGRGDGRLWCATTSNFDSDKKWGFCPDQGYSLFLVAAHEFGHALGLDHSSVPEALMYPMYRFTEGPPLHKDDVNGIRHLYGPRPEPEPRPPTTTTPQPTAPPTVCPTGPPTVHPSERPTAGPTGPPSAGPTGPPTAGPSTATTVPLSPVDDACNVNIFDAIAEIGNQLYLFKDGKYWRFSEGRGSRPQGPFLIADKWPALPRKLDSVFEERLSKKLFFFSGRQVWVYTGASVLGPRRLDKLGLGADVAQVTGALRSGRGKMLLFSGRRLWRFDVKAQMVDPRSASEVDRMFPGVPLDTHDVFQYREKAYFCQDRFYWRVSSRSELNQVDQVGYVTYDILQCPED
substance,measurement,value
TIMP-1-GPI (from UniProt P01033 24-207; P19256 202-237),release of proMMP-9 from RCC-53 into the medium (gelatinase zymography); concentration from which a decrease was seen,10 ng/mL

# — patent US20110105407A1
